# Measurements from the nanobody polyreactivity screen of Harvey et al. (2022).
# Experiment: yeast display, Sf9 membrane polyspecificity reagent, FACS + sequencing; frameworks hold sequencing errors
# Outline: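 Galactose induction of a Saccharomyces cerevisiae BJ5465 synthetic nanobody display library ran 36–48 hours. The cells were then stained for 1 hour at 4 °C with 10% biotinylated, detergent-solubilized Sf9 membrane reagent, pulled down on streptavidin microbeads and FACS-sorted into low and high (top ~1%) gates on expression and reagent-binding fluorescence. Labels for polyreactivity follow the gate of origin.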
row,Sequence,polyreactivity (PSR sort gate)
1,QVQLVESGGGLVQAGGSLRLSCAASGRTFKIYAMGWYRQAPGKERELVAAIRRSGGNTYYADSVKGRFTISRDNAKNTVYLQMNSLKPEDTAVYYCATRGYPGGYQRSQSMYYWGQGTQVTVSS,high polyreactivity
2,QVQLVESGGGLVQAGGSLRLSWAASGITFDDYAMGWYRPAPGKERELVAAITWSGDSTYYADSVKGRFTISRDNAKNTVYLQMNSLKPEDTAVYYCAAVSYYWGQGTQVTVSS,high polyreactivity
3,QVQLVESGGGLVQAGGSLRVSCAASGRTFRGYSMGWSRPAPGKERELVAAISWRGGTTYYADSVKGRFTISRDNAKNTVYLQMNSLKPEDTAVYYCAARRYRISKTSGYWGQGTQVTVSS,high polyreactivity
4,QVQLVESGGGLVQAGGSLRLSCAASGRIFGRNAMGWYRQAPGKERELVASITSGGGTNYADSVKGRFTISRDNAKNTVYLQMNSLKPEDTAVYYCAAKRHLEGYSGSIGRYYYWGQGTQVTVSS,low polyreactivity
5,QVQLVESGGGLVQAGGSLRLSCAASGSIYGYTMGWNRQAPWKERELVAAINRRADRTYYADSVKGRFTISRDNAKNTVYLQMNSLKPEDTAVYYCNKGGWYTLGYWGQGTQVTVSS,high polyreactivity
6,QVQLVESGGGLVQAGGSLRLSCAASGRTFYYYTMGWYRQAPGKERELVAAITHGGSTYYADSVKGRFTISRDNAKNTVYLQMNSLKPEDTAVYYCNAVYHYPYEYWGQGTQVTVSS,high polyreactivity
7,QVQLGESGGGLVQAGGSLRLSCAASGRIIPYYAMGWYRQAPGKERELVAAISLSGGSTYYADSVKGRFTISRDIAKNTVYLQMNSLKPEDTAVYYCNAVASTYGYYWYPGLGYDYWGQGTQVTVSS,low polyreactivity
8,QVQHVESGLGLVQAGCSLRLSCAASGITFYPYTMGWYRQAPGKERELVAAIDYNGDSTYYADSVKGRFTISRDNAKNTVYLQFNSLKPEDTAVYYCAADVWTLDPDEYDYWGQGTQVTVSS,low polyreactivity
9,QVQLVESGGGLVQAGGSLRLSCAASGLIFPRYDIGWYRQAPGKESEFVAAITSGGGTYYADSVKGRFTLSRDNAKNTVYLQMNSVKPEDTAVYYCARDHYRHSRYFYRYDYWGQGTQVTVSS,low polyreactivity
10,QVQLVESGGGLVQAGGSLRLSCAASGSIFPSNAMGWYRQAPGKERELVAAISSSGGRTYYADSVKGRFTISRDNAKNTVYLQMNSLKPEDTAVYYCAAKYTVYGVGYYYWGQGTQVTVSS,high polyreactivity
11,QVQLVESGGGLVQAGGSLRLSCAASGRTFYVYAMGWYRQAPGKERELVATISRGGSTTYADSVKGRFTISRDNAKNTVYLQMNSLKPEDTAVYYCATELLGGRRTVAYYWGQGTQVTVSS,low polyreactivity
12,QVQLVESGGGLVQAGGSLRLSCAASGRTFTRYTMGWYRQAPRKERELVAAITRGGTTYYADSVKGRFTISRDNAKNTVYLQMNSLKPEDTAVYYCNKRKQQSSDGYGYWGQGTQVTVSS,high polyreactivity
13,QVQLEETRGGLVQAGGSLRLSCAASGLFFGTYAMGWYRQPPGKEWELVAGITSSGGTTYYADSVKGRFTISRDNAKNTVYLQMNSLKPEDTAVYYCNARAVQSRYGYYYWGQGTQVTVSS,low polyreactivity
14,QVQLVESGGGLVQAGGSLRLSCAASGFTFEDYAMGWYRQAPGTERELVAAISSRGTSTYYADSVKGRFTISRDNAKNTVYLQMNSLKPEDTAVYYFNKRGWYPYGYWGQGTQVTVSS,high polyreactivity
15,QVQLVESGGGLVQAGGSLRLSCAASGRIFISNAKGWYIQAPGKERELVAAITWIGDRTYYADSVKGRFTISRDNAKITVYLEMNSLKPEDTAVYYCNRVTSRVSGRYSYEYWGQVTQVTVSS,high polyreactivity
16,QVQLVESGGGLVQAGGSLRLSCASSGRIFQFYAMGWYRQEPGKERELVASISWSGGRTYYADSVKGRFTISRDNAKNTVYLQMNSLNPEDTAVYYCAADYYDYYYWGQGTQVTVSS,high polyreactivity
17,QVNLVDSGGGLVQAGGSHRLSCAASGSIVSGNAMGWYRQEPGKERELVATISWSGGSTNYADSVKGRFTISRDNAKNTVYLQMNSLKPEDTAVYYCNAYVAYWGWVYRVDYWGQGTQVTVSS,low polyreactivity
18,QVQLVESGGRLVQAGGSLRLSCAASGITFGNAMGWYRQAPGKERELVAGITFSSGSTYYADSVKGRFTISRDNAKNTVYLLMNSLKPEDTAVYYCATDSSKHPYSPTLLKFDYWGQGTQVTVSS,low polyreactivity
19,QVQLVESGGGLVQAGGSLRLSCADSGSIYHNYDMGWYRQAPGKEKEFVADISRGGDTIYADSVKGRFSISRDNAKNTVYLQMNSLKPEDTAVYYCNATYWILDSPWWRETFDYWGQGTQVTVSS,low polyreactivity
20,QVQLVESGGGLVQAGGSLRLSCAASGSTFGEYAMGWSRQAPGKERELVATITSAGSTYYADSVKGRITFSRDNAKYTVYLQMNSLKPEDTAVYYCAVDPISQGHMDYWVQGTQVTVSS,low polyreactivity
21,QDQLVDSGGGLVQAGGSLRLSCAASGRTFESYAMGWYRQAPGKERELVAAISYSGGSTYYADSVKGRFTISRDNAKNTVYLQMNSLKPEDTAVYYCAVRWRYKYDYWGQGTQVTVSS,high polyreactivity
22,QVQLVESGGGLVQAGGSLRLSCAASGSTFKRYDMGGYRQAPGKECEFVAGISSRGSRTYYADSVTGRFTISRDNAKNSVYFKMNILKPEDSAVYYCAVSGNHVSPPYGFWGQGTQVNVSS,high polyreactivity

row,Sequence,polyreactivity (PSR sort gate)
1,QVQLVESGGGLVQAGGSLRLSSAASGSIFYYYSMGWYRQAPGKERELVAAITRSGGSTYYADSVKGLFTISRDNAKNTVYLQMNSQKPEDTAVYYCAKDAHAYRDLDYWGQGTQVTVSS,low polyreactivity
2,QVQLVESGGGLVQAGGSLRLSCAASGSIFNYYAMGWYRQAPGKERELVAAITSGVSTYADSVKGRFTISRDNAKNTVYLQMNSLKPEVTAVYYCADRVTGPRGDYWGQGTQVTVSS,low polyreactivity
3,QVQLVESGGGLVQAGGSLRLSCAASGSTFGGYPMGRYRQAPGKERELGAAITWSGSSTTYADSVKGRFTISRDNAKKTVYLQMNSLKPEETAVYYCAAEAQDSTYPQYDYWGQGTLVTVSS,low polyreactivity
4,QVQLVESGGGLVQAGGSLRLSCAASGRTLSANAMGWYRQAPGKERELVATISTRGGRTYYADSVKGRFTISRDNAKNTVYLQMNSLKPEDTAVYYCARLPPGDMDYWGQGTQVTVSS,low polyreactivity
5,QVQLVESGGGLVQAGGSLRLSCPASGRIFYYNAIGWYRQAPGKERELVATITRAGGTYYADSVKGRFTISRDNAKNTVYLQMNSLKPEDTAVYYCAKRHPIVDDYKGDYWGQGTQVTVSS,low polyreactivity
6,QVQLVESGGGLVQAGGSLRLSCAASVFTFSRYAMGWYRQAPGKERELVAAITRGGGNTYYADSVKGRFTISRDNAKNTVYLQMHSLNPEDTAVFYCNAQVGNFGYRSGGYDYWGQGTQVTVSS,high polyreactivity
7,QVQIVESGGGLVQAGGSLRLSCAASGSTSYRYAMGWYRQATGQERALVAAIPWISDSTYYADSVKGRFTISRDNAKNTVYLQMNSLKPEDTAVYYCNTDPLVTSVTFNYWGQGTQVTVSS,low polyreactivity
8,QVQLVESGGGLVQAGGSLRLSCAAYGSTFRRYGMGWYRQAPGKERELVAAISKGGTRTYYADSVKGRFTISRDNVKNTVYLQMNSLKPEDTAVYYCAAAGASSSTPQKEDYWGQGTQVTVSS,high polyreactivity
9,QVQLVESGGGLVQAGGSLRLSCAASGFTFYDYDMGWSRQAPGKERELVATITWSGGRTYYADSVKGRFTISRDNAKNTVYLQMNSLKPEDTAVYYCAADEPDRDYGYWGQGTQVTVSS,low polyreactivity
10,QVQHVESGGGLVQAGGSLRLSCAASGFTFSKYGMGWYRQAPGKERELVAAISGSGGNTYYADSVKGRFTISRDNAKNTVYLQMNSLKPEDTAVYYCNAEGWRYYYWYHEYGYWGQGTQVTVSS,low polyreactivity
11,QVQLVESGGGLVQAGGSLRLSCAASGFTFSAYAMGWYRQAPGKERELVAAIRSSDITYYADSVKGRFTISRDNAKNTVYLQMNSLKPEDTAVYYCAADLGDYYLYYDYEYWGQGTQVTVSS,high polyreactivity
12,QVQLVESGGGLVQAGGSLRLSCAASGITFVDYAMGWYRQAPGKERELVAAITTGGSTNYADSVKGRFTISRDNAKNTVYLQMNSLKPEDTAVYYCNKRPVILYDYWGQGTQVTVSS,low polyreactivity
13,QVQLVESGGGLVQAGGSLRLSCAASGLIFGWYAMGWYRQAPGKERELVAAISWSGSRTNYADSVKGRFTISRDNAKNTVYLQMNSLKPEDTAVYYCAAGWGYSASRYGYWGQGTQVTVSS,high polyreactivity
14,QVQLVESGGGLVQAGGSLRVSCAASGRTFRYYEMGWYRQAPGKERELVAAISWSGGSTYYADSVKGRFTISRDNAKNSVYLQMNSLKPEDTAVYYCGAPKPIYSYPTYYYWGQGTQVTVSS,high polyreactivity
15,QVQLVESGGGLVQAGGSLRLSCAASGNTCTPNGMGWYRQAPGKEREFVAAITWSGGRTHYADSVKGRFTISRDNAKNTVYLQMNSLKPEDTAVYYCAARRSHFEYGTYSGYDYYWGQGTQVTVSS,high polyreactivity
16,QVQLVESGGGLVQAGGSLRLSCAASGRIFAVYAMGWYRQAPGKERELVAAINNGASTNYADSVKGRFTISRDNAKNTVYLQMNSLKPEDTAVYYCAAYGYWGQGTQVTVSS,high polyreactivity
17,QVQLVESGGGLVQAGGSLRLSCAASGSTFQYYAMGWYREAPGKERELVAAITHSGTRTYYADSVKGRYTISRDNAKNTVYLQMNTLKPEDTAGYYCAARGYGKYDYWGQGTQVTVSS,high polyreactivity
18,QVQLVESGGGLVQAGGSLRLSCAASGSTFGGYAMGWYRQAPRKERELVAAISQSGTRTFYADSVKGRFSISRDNAKNTVYLQMKSLKPEDSAVYYCAAVRSYRRALLTLDYWGLGTQVTVSS,high polyreactivity
19,QVQLVESGGGLVQAGGSLRLSCAASGSTFRYNAMGWYRQAPGKERELVAAITGSGDRTFYADSVKGRFTISRDNAKNTVYLQMNSLKPEDTAVYYCAARSRYPFSYGYYYWGQGTQVTVSS,high polyreactivity
20,QVQLVESGGGLVQAGGSLRLSCAASGRIFKDNAMGWYRQAPGKERELLATIDSGGDTNYADSVKGRFTISRDNAKNTVYLQMNSLKPEDTAVYYCNTEGFLSAVFAFGYWGQGTQVTVSS,low polyreactivity
21,QVQLVESGGGEVQAGGSLRLICAASGRTFQLNAMGWYRQAPGKERELVAAISTRGGSTYYADSVKGRFTISRDNAKNTVYLQMISLKPEDTAVYYCAARVWTANYEMDLWGQGTQVTVSS,high polyreactivity
